Assay results as given in US20260258115A1 (MAPP BIOPHARMACEUTICAL, published 2026).
Changes are numbered by the printed parent chain.

B1: ADI-19455 (antibody, V domains shown)
VH: EVQLVESGGGLVKPGGSLRLSCAASGFTFSSYSMNWVRQAPGKGLEWVSSISSSSSYIYYADSVKGRFTISRDNAKNSLYLQMNSLRAEDTAVYYCARSQSGSYYSSDYWGQGTLVTVSS
VL: QSVLTQPPSVSGAPGQRVTISCTGSSSNIGAGYDVHWYQQLPGTAPKLLIYGNSNRPSGVPDRFSGSKSGTSASLAITGLQAEDEADYYCQSYDSSLSGWVFGGGTKVTVL
notes: full-length IgG
B2: ADI-25496 (antibody, V domains shown)
VH: QVQLVQSGGGLVKPGGSLRLSCAASGFTFSSYSMNWVRQAPGKGLEWVSSISSSSSYIYYADSVKGRFTISRDNAKNSLYLQMNSLRAEDTAVYYCARVASEVWFFDLWGRGTLVTVSS
VL: B1 VL with S2P, W100Y, G104T, V108L
notes: full-length IgG
B3: ADI-25595 (antibody, V domains shown)
VH: B1 VH with S99Y, G102S, Y104W, S106Y, S107F
VL: B1 VL with Q1S, S2Y, W100V, V108L
notes: full-length IgG; also called Ab 464
B4: ADI-21013 (antibody, V domains shown)
VH: QVQLQESGPGVVKPSETLSLTCTVSGGSISNTHSYWGWIRQSPGKGLEWIGSIYYTGSTYYNPSFRSRVTLSVDTSKNQFSLKLSSVTAADTAVYYCAAPDYFVLTDYKSTFDYWGRGALVTVSS
VL: DIVMTQSPGTLSLSPGGRATLSCRASQSVGSSSLAWYQQKPGQAPRLLIYGASSRAAGIPDRFSGSGSGTDFTLTINRLEPEDFAMYYCQQYGSSPLTFGGGTKVEIK
B5: ADI-21005 (antibody, V domains shown)
VH: EVQLVESGGAVVQPGGSLRLSCVASGLAFDEYTMHWVRQSSAKGLEWISLISWNGGITYYADSVKGRFTISRDNSKNSLYLQMNSLRTEDTATYFCARLGYGSGSDYGDDYWGQGTLVTVSS
VL: ETTLTQSPGTLSLSPGERATLSCRASQSVSNNYLAWYQQKPGQAPRLLIHGASTRVTGIPARFSGSGSGTDFTLTISRLEPEDFAVYYCHQYHSSPRTFGQGTKVDIK
B6: ADI-21049 (antibody, V domains shown)
VH: EVQLVESGGGLVKPGGSLRLSCSASGFAFSSYSMNWVRQAPGKGLEWVSSISASSSYIFYADSVKGRFTISRDNAKNSLYLQMNSLRAEDTAFYYCARALSPGYGDYRDYWGQGTLVTVSS
VL: QSVVTQPPSVSGAPGQRVTISCTGSSSNIGAGYDVHWYQQLPGAAPKLLIYGNNNRPSGVPDRFSGSKSGTSASLAITGLQAEDEADFYCQSYDHNLSVVFGGGTKLTVL
B7: ADI-21058 (antibody, V domains shown)
VH: QVQLQESGPGLVKPSETLSLTCTVSGGSISGTTYYWAWIRQPPGKGLEWIGTIFYSGSTYYNPSLQSRVTTSVDASKNQMSLRLSSVTAADTAMYYCARHTSIYDNLTGFYSHLTGVLDMWGQGTMVTVSS
VL: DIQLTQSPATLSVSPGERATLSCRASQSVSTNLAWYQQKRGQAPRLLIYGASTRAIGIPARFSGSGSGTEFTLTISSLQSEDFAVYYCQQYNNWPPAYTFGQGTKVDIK
B8: ADI-20978 (antibody, V domains shown)
VH: EVQLVESGAEVKKPGASVKVSCKASGYTFGNYGISWVRQAPGQGLEWMGWISAYNGNSNYAQKFQGRVTMTTDTSASTAYMEVRSLRSDDTAVYYCARDVPVTAARLLDYWGQGTLVTVSS
VL: DIVLTQTPLSLPVTLGQPASISCRSSQSLVYSDGNTYLSWFQQRPGQSPRRLIYKVSNRDSGVPDRFSGSGSGTDFTLKISRVEAEDVGVYYCMQATDWLGYTFGQGTKLEIK
B9: ADI-20984 (antibody, V domains shown)
VH: EVQLLETGAEVKKPGASVKVSCHVSGYGLTDLSMHWVRQAPGKRLQWMGSFDPQYGETIDTQNFQGRVTMTVDTSTATLYMQLSGLRSEDTAMYYCATPQSTGALDNWGQGTLVTVSS
VL: DIRVTQSPSSLSASVGDRVTITCRASQSISSYLSWYQQKPGKAPRLVIFAASNLQSGVPSRFSGTGSSRFSDSGSWTDFTLTISSLQPEDFAIYYCQQTYITPFTFGQGTKVDIK
B10: ADI-20966 (antibody, V domains shown)
VH: EVQLLESGGGLGKPGGSLRLSCAASGFKLSSYYMHWVRQAPGKGPEWVSSISASSSYINYADSVRGRFTVSRDNAKNSLFLQMNSLRVDDTAIYYCARGAPLTNFGMVLDSWGQGTLVTVSS
VL: QSVLTQPPSVSGAPGQRVTISCTGSGSNIGAGYDVHWYQQVPGRVPKLLIYANNNRPSGVPDRFSGSKSGTSASLAITGLQADDEADYYCQSYDRSLNVVFGGGTKLTVL
B11: ADI-20998 (antibody, V domains shown)
VH: QVQLVQSGGGVVQPGRSLRLSCAASGFTLSTYGMHWVRQAPGKGLEWVAVIYYDESNKFYADSVQGRFTISRDDSKNTLFLQMNSLRAEDTAVYYCARESRPRGYSYSDFDSWGQGTLVTVSS
VL: QPGLTQPRSVSGSPGQSVTISCTGTSSDVGTFNYVSWYQQHPGKAPKLMIYDVNQRPSGVPDRFSGSKSGNTASLTISGLQAEDEADYYCCAYAGYYSFGGGTKLTVL
B12: ADI-20987 (antibody, V domains shown)
VH: QVQLVQSGGGVVHPGRSLRLSCAASGFSFSDYGMHWVRQAPGKGLEWVAVIWYDGINKYYADSVKGRFAISRDNSKNTLYLQMNSLRAGDTAVYYCARGGIAAAQRYFDYWGQGTLVTVSS
VL: ETTLTQSPGTLSLSPGERATLSCRASQTVSSSNLAWYQQKPGQAPRLLIYGASSRATGIPDRFSGSGSGTDFTLTISRLEPEDFAVYYCQQSGTSFGQGTKVDIK
B13: ADI-21018 (antibody, V domains shown)
VH: EVQLLESGGGLVKPGGSLRLSCAGSGFTLSSYGMNWVRQAPGQGLEWISSISSSSSYINYADSVKGRFTISRDNAQNSLYLQLNSLRAEDTAVYYCARGGLGYDYGLGSYTYADYWGQGTLVTVSS
VL: B1 VL with L4V, I29T, V35I, A45G, S54K
B14: ADI-21057 (antibody, V domains shown)
VH: QVQLVQSGAEVKKPGESLKISCKASGYSLSNNWIAWVRQMPGKGLEWMGIVYLGDSDARYSPSFQGQVTFSADKSISTAYLQWSSLQASDTAMYFCARHHGDLVVTSDSRYFYGLDVWGQGTTVTVSS
VL: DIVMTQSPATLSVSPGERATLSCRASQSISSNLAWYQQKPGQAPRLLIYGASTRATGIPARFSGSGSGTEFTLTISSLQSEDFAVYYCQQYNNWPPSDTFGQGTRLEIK
B15: ADI-21028 (antibody, V domains shown)
VH: EVQLVESGGALVKPGGSLRLSCVASGFTFSDYYMHWVRQAPGKGLEWVSYISSTSSFTNYADSVKGRFIISRDNAKNSLYLQLNSLRAEDTAVYYCARDESSGWQTRRHFGMDVWGQGTLVTVSS
VL: EIVMTQSPSTLSASVGDRVTITCRASQSLNTWLAWYQHKPGKAPKLLISTASSLQSGVPSRFSASGSGTEFTLTISSLQPDDFATYYCQQFRGTFGPGTKVEIK
B16: ADI-21015 (antibody, V domains shown)
VH: QVQLVQSGAEVKKPGASVRVSCKVPGNTLSDLSMHWVRHTPGEGLEWMGSFDPEYGETIPAQRFQGRVTMTEDTSTDTAYMELTSLRFEDTAVYYCAAPHASGALQHWGQGTLVTVSS
VL: DIVMTQSPSSLSASVGDRVTITCRASQIISAYLNWYQQKAGKAPKLLIYAASSLQSGVPSRFSGSGSGTDFTLTISSLQPEDFATYYCQQTYITPFTFGQGTKLEIK
B17: ADI-20980 (antibody, V domains shown)
VH: QVQLQESGPGLVKPSQTLSLTCSVSGGSVSSGDYYWTWIRQPAGKGLEWIGRIYNSGGTDYSPSLKSRVTISVDTSKNQFSLKLSSVTAADTAVYYCARGRGYYESPWGQGTLVTVSS
VL: EIVLTQSPATLSLSPGERATLSCRASQSVGIYIGWYQQKPGQAPRLLMYDASNRATGIPDRFSGSGSGTDFSLTISSLEPEDFAVYYCQLRSKWLTFGPGTKVEIK

What follows are binders tested against T1, RSV postfusion F (postF), subtype A (respiratory syncytial virus subtype A, UniProt P03420 26-513) (assay: BLI).
T1 construct: also called Postfusion subtype A; F deltaFP
B1: no binding. B2: no binding. B3: no binding.

What follows are binders tested against RSV prefusion F (preF), subtype B (respiratory syncytial virus, subtype B) (assay: BLI, IgG).
With B4 the Kd was 1.79 nM. Work on B5 yielded a Kd of 7.7 nM. For B6, the Kd was 1.27 nM. Work on B7 yielded a Kd of 0.515 nM. For B8, the Kd was 0.319 nM. For B9, the Kd was 20.2 nM. B10 was tested, and the Kd was 0.862 nM. B11 showed a Kd of 1.35 nM. With B12 the Kd was 35.6 nM. Binder B13 has a Kd of 0.366 nM. Work on B14 yielded a Kd of 0.86 nM. Binder B15 has a Kd of 3.33 nM. For B16, the Kd was 32.4 nM. For B17, the Kd was 0.542 nM.
